Measured values as given in publication PMC3713010, “Sox2 Transcriptionally Regulates Pqbp1, an Intellectual Disability-Microcephaly Causative Gene, in Neural Stem Progenitor Cells”.

T1: Oct6 DNA-binding domain (BD-Oct6) (Mus musculus (B6), UniProt P21952 317-416)
T1 sequence: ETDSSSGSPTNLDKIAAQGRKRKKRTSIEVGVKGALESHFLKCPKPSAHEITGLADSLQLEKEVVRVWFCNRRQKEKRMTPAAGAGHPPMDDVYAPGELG

T2: Brn2 DNA-binding domain (BD-Brn2) (Mus musculus (B6), UniProt P31360 336-435)
T2 sequence: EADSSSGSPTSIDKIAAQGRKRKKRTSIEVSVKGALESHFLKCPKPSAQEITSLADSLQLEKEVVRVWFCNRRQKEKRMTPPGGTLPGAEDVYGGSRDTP

B1: 38 (dsDNA)
DNA 1: GGGGGAGGTTTTGATGATTATGAACAAAGCTTCTGTCCCCC
DNA 2: GGGGGACAGAAGCTTTGTTCATAATCATCAAAACCTCCCCC
B2: 39 (dsDNA)
DNA 1: GGGGGTTCAGGTTTTTGTAGGAACTTAAATTTTATGATTAGCCCCC
DNA 2: GGGGGCTAATCATAAAATTTAAGTTCCTACAAAAACCTGAACCCCC
B3: 35 (dsDNA)
DNA 1: GGGGGGTTTCTCTAATTAATAGACTTCATTGTTCAAAACTATTTTACATTTGTTCCCCC
DNA 2: GGGGGAACAAATGTAAAATAGTTTTGAACAATGAAGTCTATTAATTAGAGAAACCCCCC
B4: 33 (dsDNA)
DNA 1: GGGGGATAGTACATTTGTTGTCATTAACAAATCAGTCCCCC
DNA 2: GGGGGACTGATTTGTTAATGACAACAAATGTACTATCCCCC
B5: 32 (dsDNA)
DNA 1: GGGGGCGTTGCACACAAACCTTAATTTTCCAATCTATTCCCCC
DNA 2: GGGGGAATAGATTGGAAAATTAAGGTTTGTGTGCAACGCCCCC
B6: 31 (dsDNA)
DNA 1: GGGGGTCCTCTCCTTTGTTTTGTCCTCACACCCCCAGCTGACCAGGTGCCCCC
DNA 2: GGGGGCACCTGGTCAGCTGGGGGTGTGAGGACAAAACAAAGGAGAGGACCCCC
B7: 36 (dsDNA)
DNA 1: GGGGGTGCATACATTTGTAATTCATTTAGGTGGTTTTCCCCC
DNA 2: GGGGGAAAACCACCTAAATGAATTACAAATGTATGCACCCCC
B8: 34 (dsDNA)
DNA 1: GGGGGTTGTTCCCTTTGACTTCTTGTGACTTTAACAAATTCTAAAGCCCCC
DNA 2: GGGGGCTTTAGAATTTGTTAAAGTCACAAGAAGTCAAAGGGAACAACCCCC
B9: 41 (dsDNA)
DNA 1: GGGGGTTTGGAAAACAAAACATTAACCAAAATTTTCCCCC
DNA 2: GGGGGAAAATTTTGGTTAATGTTTTGTTTTCCAAACCCCC
B10: 30 (dsDNA)
DNA 1: GGGGGTGTCTTCTCCCTAATGATTGTTGTATGACCCCCC
DNA 2: GGGGGGTCATACAACAATCATTAGGGAGAAGACACCCCC
B11: 37 (dsDNA)
DNA 1: GGGGGTTTCATGGTTTGTTAGCTATTCTCTTATCACCCCCC
DNA 2: GGGGGGTGATAAGAGAATAGCTAACAAACCATGAAACCCCC
B12: 40 (dsDNA)
DNA 1: GGGGGTTTGTCATTTTGTAGTGCTAGGAATTAAACCCATGTCCCCC
DNA 2: GGGGGACATGGGTTTAATTCCTAGCACTACAAAATGACAAACCCCC

Columns and labels:
Experiment in all cases: EMSA; 10% glycerol, 20 mM HEPES pH 7.8, 45 mM KCl, 10 mM NaCl, 1 mM EDTA, 1 mM DTT, 0.2 ug/uL BSA, 0.1% NP-40, 50 ng poly-dIdC; 20 ng each GST protein; room temperature 30 min (heterodimers 4 C); 6% PAGE 0.25x TBE
Settings in all cases: protein: recombinant; tags: GST (N-terminal, pGEX-6P-1); label: 32P-dCTP fill-in of the 5' (dG)5 overhangs of both strands (Methods; control probes are given with GGG)
[1] = target: T1, Oct6 DNA-binding domain (BD-Oct6)
Method in brief: (§1)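 DNA binding of transcription factor DNA-binding domains to candidate cis-elements was read from band radioactivity in the expected shift region. The GST-tagged domains came from E. coli BL21 via glutathione-sepharose; probes were annealed oligonucleotides labelled with 32P-dCTP. Each assay used 20 ng protein, 40,000–50,000 cpm probe and 50 ng poly-dIdC for 30 min at room temperature, followed by 6% polyacrylamide electrophoresis in 0.25×TBE at 4°C.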

[2] = target: Pax6 DNA-binding domain (BD-Pax6) (Mus musculus (B6), UniProt P63015 190-289)
Chain of Pax6 DNA-binding domain (BD-Pax6) (P63015 190-289): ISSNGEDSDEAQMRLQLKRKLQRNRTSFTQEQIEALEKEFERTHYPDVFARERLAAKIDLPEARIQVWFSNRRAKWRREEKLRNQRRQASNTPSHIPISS
Method in brief: as §1

[3] = target: T2, Brn2 DNA-binding domain (BD-Brn2)
Method in brief: as §1

Row | Binder | binding result [1] | binding result [2] | binding result [3]
1 | B1 | binds | no binding | no binding
2 | B2 | binds | binds | binds
3 | B3 | binds | binds | binds
4 | B4 | binds | binds | binds
5 | B5 | binds | binds | binds
6 | B6 | no binding | no binding | no binding
7 | B7 | binds | binds | binds
8 | B8 | no binding | binds | no binding
9 | B9 | binds | binds | no binding
10 | B10 | binds | no binding | binds
11 | B11 | no binding | no binding | no binding
12 | B12 | binds | binds | binds
